Results taken from publication PMC4250914 (Scientific Reports, 2014).

Target: T1, His-VPS41 (human, UniProt P49754 1-854)
T1 sequence: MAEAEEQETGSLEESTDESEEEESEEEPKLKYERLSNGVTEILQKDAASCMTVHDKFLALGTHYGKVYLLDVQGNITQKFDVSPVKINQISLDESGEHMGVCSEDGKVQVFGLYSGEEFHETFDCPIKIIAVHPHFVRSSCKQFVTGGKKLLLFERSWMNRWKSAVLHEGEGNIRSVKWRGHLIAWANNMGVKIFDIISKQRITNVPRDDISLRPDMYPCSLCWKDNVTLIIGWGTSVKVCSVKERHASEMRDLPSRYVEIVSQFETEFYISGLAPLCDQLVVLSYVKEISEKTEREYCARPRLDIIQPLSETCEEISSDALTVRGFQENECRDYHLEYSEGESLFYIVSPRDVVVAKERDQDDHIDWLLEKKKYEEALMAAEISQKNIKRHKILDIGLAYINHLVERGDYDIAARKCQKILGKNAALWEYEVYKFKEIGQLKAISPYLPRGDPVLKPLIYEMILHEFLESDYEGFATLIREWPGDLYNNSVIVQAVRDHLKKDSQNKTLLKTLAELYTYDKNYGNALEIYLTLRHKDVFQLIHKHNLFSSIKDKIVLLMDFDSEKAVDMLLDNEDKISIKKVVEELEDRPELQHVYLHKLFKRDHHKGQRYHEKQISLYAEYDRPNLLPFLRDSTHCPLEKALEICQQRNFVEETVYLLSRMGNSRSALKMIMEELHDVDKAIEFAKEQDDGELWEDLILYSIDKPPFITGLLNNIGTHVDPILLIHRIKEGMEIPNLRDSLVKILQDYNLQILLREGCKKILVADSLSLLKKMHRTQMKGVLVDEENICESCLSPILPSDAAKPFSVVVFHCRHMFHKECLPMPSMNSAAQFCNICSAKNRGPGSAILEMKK
Experiment: pull-down

B1: GST-RILP (natural protein)
chain: MEPRRAAPGVPGWGSREAAGSASAAELVYHLAGALGTELQDLARRFGPEAAAGLVPLVVRALELLEQAAVGPAPDSLQVSAQPAEQELRRLREENERLRRELRAGPQEERALLRQLKEVTDRQRDELRAHNRDLRQRGQETEALQEQLQRLLLVNAELRHKLAAMQTQLRAAQDRERERQQPGEAATPQAKERARGQAGRPGHQHGQEPEWATAGAGAPGNPEDPAEAAQQLGRPSEAGQCRFSREEFEQILQERNELKAKVFLLKEELAYFQRELLTDHRVPGLLLEAMKVAVRKQRKKIKAKMLGTPEEAESSEDEAGPWILLSDDKGDHPPPPESKIQSFFGLWYRGKAESSEDETSSPAPSKLGGEEEAQPQSPAPDPPCSALHEHLCLGASAAPEA
B1: binds.
